{
  "source": "paper PMC6166728",
  "about": "“Structure–function analyses of the bacterial zinc metalloprotease effector protein GtgA uncover key residues required for deactivating NF-κB” (The Journal of Biological Chemistry, 2018)",
  "binders": {"B1": {"name": "p65(20–188) (domain or fragment, murine)", "chain": "AYVEIIEQPKQRGMRFRYKCEGRSAGSIPGERSTDTTKTHPTIKINGYTGPGTVRISLVTKDPPHRPHPHELVGKDCRDGYYEADLCPDRSIHSFQNLGIQCVKKRDLEQAISQRIQTNNNPFHVPIEEQRGDYDLNAVRLCFQVTVRDPAGRPLLLTPVLSHPIFDNRA", "notes": "single alanine left by ULP1 cleavage of the His6–SUMO tag, before the first residue of p65; NF-κB subunit p65 (RelA), murine, amplified from RAW264.7 cDNA, N-terminal domain residues 20–188; Cloned in pE-SUMO (LifeSensors); also called p65 NTD; p65 N-terminal domain; source: E. coli BL21 PC2, purified (Ni-NTA, ULP1 cleavage, Superdex 75 SEC); not shown: His6, N-terminal, cleaved; SUMO, …"}},
  "target": "T1, GtgA(20–228)^E183Q (Salmonella Typhimurium strain ATCC …, UniProt A0A0F6AZI6 20-228, E183Q)",
  "T1 construct": "residues left by TEV cleavage of the His6–GST tag, before the first residue of GtgA; Cloned in pETM30 (TEV-cleavable N-terminal His6 and GST); source: E. coli BL21 PC2, purified (GSH–Sepharose, TEV cleavage, Superdex 75 SEC); not shown: His6, N-terminal, cleaved; GST, N-terminal, cleaved",
  "T1 sequence": "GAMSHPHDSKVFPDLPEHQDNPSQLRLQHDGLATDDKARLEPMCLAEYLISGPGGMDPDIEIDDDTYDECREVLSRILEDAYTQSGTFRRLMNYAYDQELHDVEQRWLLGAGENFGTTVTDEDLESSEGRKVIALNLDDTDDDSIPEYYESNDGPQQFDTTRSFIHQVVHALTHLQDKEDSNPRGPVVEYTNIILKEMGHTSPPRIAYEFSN",
  "assay": "crystal structure; GtgA(20–228)^E183Q–p65(20–188) complex, 175 μM of each protein mixed immediately prior to crystallization; sitting drop, 20 °C, 0.1 M Tris pH 8.3, 0.5 M LiCl, 32.5% (w/v) PEG 6000; Zn2+-free; single heterodimer in the asymmetric unit",
  "conditions": "both partners purified",
  "data": [
    {"binder": "B1", "values": [
      {"measurement": "binding result", "result": "binds"}
    ]}
  ]
}
